From patent publication US20250375541A1, “RADIOPHARMACEUTICAL COMPOSITION AND METHODS” (Ariceum Therapeutics GmbH, priority 2024, published 2025)

Assay: Stability of the radiopharmaceutical composition: radiochemical purity by radio-TLC over time from EoP
Type: physicochemical
Settings: Tris pH 8.0, sodium ascorbate formulation
Experimental: Upon reaction completion, the mixture was directly cooled down with formulation solution (123.7 mg/mL sodium ascorbate buffer) to yield a 20 mL [^225Ac]Ac-DOTA-satoreotide stock solution. Reaction completion is referred to as the “end-of-production” (EoP) time, or t=0 h as used in the following results.
This was determined by radio TLC as set out below.
Radio-TLC was performed at T=0 h and at various time points subsequent to the radiolabeling procedure. To run the procedure, 5 μL of reaction solution was spotted on a TLC plate (RP-C18 silica glass plates) at about 1.5 cm from bottom edge. The TLC plate was developed using a mobile phase mixture of ammonium acetate 25% and methanol (40:60 Vol.-%) with an elution length of about 5-6 cm. The TLC plate was dried and measured on a phosphor imager (Perkin Elmer Cyclone Plus Storage Phosphor system) once secular equilibrium of ^225Ac and ^221Fr/^213Bi was reached (>6 hours after development). Free Ac(III) stays at the origin while ^225Ac-DOTA-Satoreotide travels with the eluent front.
In FIG. 1, “T=Xh, read Yh” means that a sample was taken and developed at T=Xh but analyzed Yh after development of the TLC plate, to account for equilibrium of the daughters.

Substance: [^225Ac]Ac-DOTA-satoreotide
- radiochemical purity (after 168 hours (from EoP) at ambient temperatures): 95.8%
- radiochemical purity (at 96 h from EoP): 98.9%
